To fix the notation:
B1: C314 (Gal-4 fusion) (peptide)
peptide: SSFADLWRNEAT
B2: A43 (Gal-4 fusion) (peptide)
peptide: PAPKFKEFFYAE
B3: HF-15 (Gal-4 fusion) (peptide)
peptide: HTSMFESFFRKE
B4: C320 (Gal-4 fusion) (peptide)
peptide: SDSAFSRLYTRS
B5: B411 (Gal-4 fusion) (peptide)
peptide: HPARTSFETHYM
B6: BUD31 peptide (Gal-4 fusion) (peptide)
peptide: KTRYIFDLFYKRKAY
B7: A41 (Gal-4 fusion) (peptide)
peptide: SSGGFERFYIAQ
B8: C317 (Gal-4 fusion) (peptide)
peptide: TEPPAAFRQLFF
B9: B45 (Gal-4 fusion) (peptide)
peptide: NTPLFQTFYNQR
B10: A310 (Gal-4 fusion) (peptide)
peptide: SHSSFYQYYLDN
B11: ARN20 (Gal-4 fusion) (peptide)
peptide: RGAFQNLFQSV
B12: B46 (Gal-4 fusion) (peptide)
peptide: ANSSFRDWYTSS
B13: B310 (Gal-4 fusion) (peptide)
peptide: SPTPHFTRLFHY
B14: HF-26 (Gal-4 fusion) (peptide)
peptide: HASPFEMHYLLG
B15: B426 (Gal-4 fusion) (peptide)
peptide: EASNSSFARLFH
B16: C33 (Gal-4 fusion) (peptide)
peptide: STFESLYNNMTA
B17: D30 (Gal-4 fusion) (peptide)
peptide: HPTHSSRLWELLMEATPTM
B18: B37 (Gal-4 fusion) (peptide)
peptide: HNTKFSTFYNMD
B19: B49 (Gal-4 fusion) (peptide)
peptide: SKFSQLYSYEPP
B20: B423 (Gal-4 fusion) (peptide)
peptide: SPTRLFDHLYMT
B21: #3-18 (Gal-4 fusion) (peptide)
peptide: NTNAFSRLFYPS
B22: B34 (Gal-4 fusion) (peptide)
peptide: SPFEEHYLSTQS
B23: A49 (Gal-4 fusion) (peptide)
peptide: VLPGSTFERFYR
B24: B414 (Gal-4 fusion) (peptide)
peptide: NPRTPTTFERYY
B25: C41 (Gal-4 fusion) (peptide)
peptide: SFYDFYNGASTP
B26: B32 (Gal-4 fusion) (peptide)
peptide: NTTDTLFSQHYR
B27: A48 (Gal-4 fusion) (peptide)
peptide: DPPTSKFSTFYQ
B28: A47 (Gal-4 fusion) (peptide)
peptide: DSQYSSFSRYYK
B29: B311 (Gal-4 fusion) (peptide)
peptide: HKASPFNYYYLN

One experiment deals with full-length T877A-AR (VP16 fusion) (human). Nature of the experiment: two-hybrid.
B1: the two-hybrid reporter activity (Gal-4 = 1) turned out to be 121.
Same read-out and setting: the value for B2 was 8300; that for B3 was 14500.
With B4, the two-hybrid reporter activity (Gal-4 = 1) stood at 4650.
B5 returned a two-hybrid reporter activity (Gal-4 = 1) of 16.
B6: the two-hybrid reporter activity (Gal-4 = 1) came out at 4870.
B7: the two-hybrid reporter activity (Gal-4 = 1) came out at 3510.
Molecule B8 registered a two-hybrid reporter activity (Gal-4 = 1) of 4380.
On the same count and under the same terms, the figure for B9 is 17200; for B10 it is 4460.
With B11, the two-hybrid reporter activity (Gal-4 = 1) stood at 1420.
Regarding B12, the two-hybrid reporter activity (Gal-4 = 1) stood at 1260.
In turn, B13 returned a two-hybrid reporter activity (Gal-4 = 1) of 6720.
On the same count and under the same terms, the figure for B14 is 8900; for B15 it is 1510.
Still for that read-out and setting: the value for B16 was 399; that for B17 was 8800.
Molecule B18 came in with a two-hybrid reporter activity (Gal-4 = 1) of 8710.
Same read-out and setting: the figure for B19 is 318; for B20 it is 168.

The target is the same in another experiment. Briefly: two-hybrid. The source holds these as a separate data set.
Molecule B1 gave a two-hybrid reporter activity (Gal-4 = 1) of 859.
For the molecule B2, the two-hybrid reporter activity (Gal-4 = 1) amounted to 7350.
In turn, B3 showed a two-hybrid reporter activity (Gal-4 = 1) of 13900.
B4 had a two-hybrid reporter activity (Gal-4 = 1) of 12700.
The molecule B21 displayed a two-hybrid reporter activity (Gal-4 = 1) of 11000.
The same measure, in the same setting: the value for B6 was 12000.
Same read-out and setting: the figure for B7 is 3060; for B8 it is 5230; for B22 it is 37.
Consider B9, for which the two-hybrid reporter activity (Gal-4 = 1) was 12600.
The same measure, in the same setting: the figure for B10 is 3590; for B11 it is 1580.
The same measure, in the same setting: the figure for B12 is 376.
Same read-out and setting: the value for B13 was 12100.
B14 returned a two-hybrid reporter activity (Gal-4 = 1) of 8400.
The same measure, in the same setting: the value for B15 was 9550; that for B16 was 1020; that for B17 was 18100.
B18 yielded a two-hybrid reporter activity (Gal-4 = 1) of 6240.
The same measure, in the same setting: the figure for B23 is 26; for B19 it is 1030; for B20 it is 401.

The target in the next experiment is T1, full-length wt-AR (VP16 fusion) (human, UniProt P10275 1-920).
T1 sequence (looked up): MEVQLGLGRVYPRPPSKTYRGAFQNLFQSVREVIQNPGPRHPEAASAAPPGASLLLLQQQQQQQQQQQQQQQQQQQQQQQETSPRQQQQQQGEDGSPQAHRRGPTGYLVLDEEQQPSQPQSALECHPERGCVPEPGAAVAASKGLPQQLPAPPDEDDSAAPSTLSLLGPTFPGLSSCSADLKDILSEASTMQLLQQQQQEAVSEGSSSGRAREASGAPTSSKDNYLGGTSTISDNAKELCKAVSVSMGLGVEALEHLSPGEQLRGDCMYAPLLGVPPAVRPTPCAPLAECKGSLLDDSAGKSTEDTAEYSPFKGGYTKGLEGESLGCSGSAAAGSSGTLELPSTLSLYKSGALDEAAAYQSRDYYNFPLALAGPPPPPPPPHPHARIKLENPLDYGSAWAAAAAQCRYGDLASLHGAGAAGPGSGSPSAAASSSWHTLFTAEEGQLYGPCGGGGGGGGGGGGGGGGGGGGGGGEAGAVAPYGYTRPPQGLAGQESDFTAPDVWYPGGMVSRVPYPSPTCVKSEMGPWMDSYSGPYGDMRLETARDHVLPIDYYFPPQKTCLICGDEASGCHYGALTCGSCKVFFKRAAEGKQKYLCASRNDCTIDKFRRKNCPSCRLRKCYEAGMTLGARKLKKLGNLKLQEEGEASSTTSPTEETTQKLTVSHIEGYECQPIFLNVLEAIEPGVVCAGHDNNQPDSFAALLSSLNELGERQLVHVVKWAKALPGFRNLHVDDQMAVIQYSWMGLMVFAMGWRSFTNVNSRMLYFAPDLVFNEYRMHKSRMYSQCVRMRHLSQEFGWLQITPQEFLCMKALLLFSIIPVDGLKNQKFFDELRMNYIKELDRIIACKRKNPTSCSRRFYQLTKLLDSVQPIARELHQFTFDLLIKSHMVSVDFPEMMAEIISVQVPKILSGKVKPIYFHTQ
Nature of the experiment: two-hybrid.
On to B24, for which the “two-hybrid reporter activity (Gal-4 = 1)” value amounted to 18.
Same read-out and setting: the value for B25 was 23; that for B1 was 1140.
On to B2, for which the “two-hybrid reporter activity (Gal-4 = 1)” value was 8840.
In the case of B3, the “two-hybrid reporter activity (Gal-4 = 1)” value was 11500.
Take B4: the “two-hybrid reporter activity (Gal-4 = 1)” value is 13400.
In the case of B5, the “two-hybrid reporter activity (Gal-4 = 1)” value turned out to be 13.
In the case of B21, the “two-hybrid reporter activity (Gal-4 = 1)” value turned out to be 12500.
Turning to B6, the “two-hybrid reporter activity (Gal-4 = 1)” value was 8940.
For B7, the “two-hybrid reporter activity (Gal-4 = 1)” value stood at 4310.
The same measure, in the same setting: the value for B8 was 6600; that for B22 was 42; that for B9 was 18000.
Turning to B10, the “two-hybrid reporter activity (Gal-4 = 1)” value is 4770.
On the same count and under the same terms, the value for B11 was 1310.
Regarding B12, the “two-hybrid reporter activity (Gal-4 = 1)” value turned out to be 792.
With B13, the “two-hybrid reporter activity (Gal-4 = 1)” value was 17800.
On the same count and under the same terms, the value for B26 was 41; that for B14 was 8900.
On the same count and under the same terms, the value for B15 was 13500.
Consider B16, for which the “two-hybrid reporter activity (Gal-4 = 1)” value turned out to be 1330.
Consider B17, for which the “two-hybrid reporter activity (Gal-4 = 1)” value was determined as 19900.
As for B18, the “two-hybrid reporter activity (Gal-4 = 1)” value is 9160.
For the molecule B27, the “two-hybrid reporter activity (Gal-4 = 1)” value worked out at 32.
B23: the “two-hybrid reporter activity (Gal-4 = 1)” value turned out to be 25.
For B19, the “two-hybrid reporter activity (Gal-4 = 1)” value is 1790.
On to B28, for which the “two-hybrid reporter activity (Gal-4 = 1)” value was determined as 21.
On the same count and under the same terms, the value for B20 was 1220; that for B29 was 46.
